Test [1] concerns the target T1, MBP-Th-LGR4 LRR1-14 (MBP-Th-hLGR4.23-383-H6) (human, UniProt Q9BXB1 23-383).
T1 construct: range 23-383; Produced in E. coli; Labeled with amine-reactive terbium chelate in the TR-FRET assay; unlabeled in the AlphaLISA ternary complex assay; also called MBP-Th-LGR4 ECD; LGR4 ECD; not shown: thrombin cut site (Th) linker
Description: TR-FRET competition binding; Tb-labeled MBP-Th-LGR4 LRR1-14, AF488-labeled MBP-Th-RSPO2 Fu1-Fu2 as tracer.

Test [2] has as its target T1, MBP-Th-LGR4 LRR1-14 …. Description: AlphaLISA ternary complex control assay. For orientation: Alpha assays give light when donor and acceptor beads are brought close together.
In test [3] the target is T1, MBP-Th-LGR4 LRR1-14 …. Put plainly: TR-FRET competition binding to LGR4 ECD. How it is done:
(§1) HEK293T cells transfected with TOPFLASH firefly luciferase reporter and Renilla luciferase control plasmids were treated with the indicated concentrations of MBP-Th-RSPO Fu1-Fu2 proteins in 1:6 diluted Wnt3a conditioned media. […] (C) AlphaLISA® luminescent proximity assay (BMG Labtech GmbH, Ortenberg, Germany) for ZNRF3 ECD binding. The indicated concentrations of MBP—Th-RSPO Fu1-Fu2 proteins were incubated with 3 nM Biotin-ZNRF3 ECD. Donor and acceptor beads were at 20 μg/ml each. Data shown for panels A-C are representative of at least three independent experiments, each performed in duplicate. The error bars represent the S.E.M. of the experiment. (D, E, F) Vertical scatter plots showing the pECso, Eₘₐₓ, and pK₁ values obtained from replicate independent signaling and LGR4 binding experiments as in panels A and B. The mean values and error bars representing the S.E.M. of the replicates are denoted.
(§2) The LGR4 ECD binding abilities of the newly purified MBP-Th-RSPO Fu1-Fu2-H₆ proteins were examined in an in vitro LanthaScreen®TR-FRET competition-binding assay (Thermo Fisher Scientific Inc., Rockford, Ill.).
On the technique in general: Time-resolved FRET reads energy transfer from a long-lived donor to a nearby acceptor.

Test [4] deals with T1, MBP-Th-LGR4 LRR1-14 …. Description: TR-FRET competition binding; Tb-labeled MBP-Th-LGR4 LRR1-14 (20 nM), AF488-labeled MBP-Th-RSPO2 Fu1-Fu2 (125 nM) as tracer. How it is done: as §1, §2

B1: commercial full-length RSPO4 produced in CHO cells (R&D Systems, catalog number 4575-RS-025/CF) (ligand, UniProt Q2I0M5 20-234, looked up)
chain: LNRRKKQVGTGLGGNCTGCIICSEENGCSTCQQRLFLFIRREGIRQYGKCLHDCPPGYFGIRGQEVNRCKKCGATCESCFSQDFCIRCKRQFYLYKGKCLPTCPPGTLAHQNTRECQGECELGPWGGWSPCTHNGKTCGSAWGLESRVREAGRAGHEEAATCQVLSESRKCPIQRPCPGERSPGQKKGRKDRRPRKDRKLDRRLDVRPRQPGLQP
notes: mature; Bought protein; also called R&D RSPO4 (CHO)
The molecule B1 came in with a pKI in test [1] of 8.23.

B2: Biotin-ZNRF3 ECD (Avi tag-ZNRF3.56-216-H6, MBP removed by thrombin) (receptor, human)
chain: KETAFVEVVLFESSPSGDYTTYTTGLTGRFSRAGATLSAEGEIVQMHPLGLCNNNDEEDLYEYGWVGVVKLEQPELDPKPCLTVLGKAKRAVQRGATAVIFDVSENPEAIDQLNQGSEDPLKRPVVYVKGADAIKLMNIVNKQKVARARIQHRPPRQPTEYHHHHHH
modifications: biotin on the N-terminal Avi tag (site-specific in vivo biotinylation by BirA)
notes: range 56-216; Expressed in E. coli as MBP-Th-Avi tag-ZNRF3.56-216-H6; also called biotinylated ZNRF3 ECD; B-Z; not shown: Avi tag (and residues left after thrombin cleavage)
For the molecule B2, in test [2], the binding result is “no binding (tested: 5 nM each)”.

B3: MBP-Th-RSPO4 Fu1-Fu2-H6 (MBP-Th-RSPO4.21-138-H6), produced in E. coli (ligand)
chain: NRRKKQVGTGLGGNCTGCIICSEENGCSTCQQRLFLFIRREGIRQYGKCLHDCPPGYFGIRGQEVNRCKKCGATCESCFSQDFCIRCKRQFYLYKGKCLPTCPPGTLAHQNTRECQGEHHHHHH
notes: Bacterially produced; also called MBP-Th-RSPO4 (E. coli); pAP356; not shown: thrombin cut site (Th) linker
As to B3, in test [3], the “fold stronger affinity than RSPO2 and RSPO3” value is approximately 7 fold. Besides, the pKI in test [4] worked out at 8.12; in test [1], 8.28.

B4: MBP-Th-RSPO2 Fu1-Fu2-H6 (MBP-Th-RSPO2.22-144-H6) (ligand)
chain: QGNRWRRSKRASYVSNPICKGCLSCSKDNGCSRCQQKLFFFLRREGMRQYGECLHSCPSGYYGHRAPDMNRCARCRIENCDSCFSKDFCTKCKVGFYLHRGRCFDECPDGFAPLEETMECVEGHHHHHH
notes: Produced in E. coli; also called pAC018; not shown: thrombin cut site (Th) linker
In test [4], B4 gave a pKI of 7.26.

B5: MBP-Th-RSPO1 Fu1-Fu2-H6 (ligand)
chain: SRGIKGKRQRRISAEGSQACAKGCELCSEVNGCLKCSPKLFILLERNDIRQVGVCLPSCPPGYFDARNPDMNKCIKCKIEHCEACFSHNFCTKCKEGLYLHKGRCYPACPEGSSAANGTMECSSPHHHHHH
notes: Produced in E. coli; also called MBP-Th-hRSPO1 Fu1-Fu2-H6; not shown: thrombin cut site (Th) linker
Turning to B5, the pKI in test [4] is 6.9.

B6: MBP-Th-RSPO3 Fu1-Fu2-H6 (MBP-Th-RSPO3.22-146-H6) (ligand)
chain: QNASRGRRQRRMHPNVSQGCQGGCATCSDYNGCLSCKPRLFFALERIGMKQIGVCLSSCPSGYYGTRYPDINKCTKCKADCDTCFNKNFCTKCKSGFYLHLGKCLDNCPEGLEANNHTMECVSIVHHHHHH
notes: Produced in E. coli; also called pAP355; not shown: thrombin cut site (Th) linker
Regarding B6, the pKI in test [4] amounted to 7.31.

The record behind these values is patent US20160152947A1 (BOARD OF REGENTS OF THE UNIVERSITY OF OKLAHOMA, published 2016).
